For one assay, the target named is T1, AKT1 (Homo sapiens, UniProt P31749).
T1 construct: purchased Panvera
In words: In vitro kinase assay: peptide phosphorylation by AKT1. It is filed as biochemical. The settings on record: normalized to best substrate. The method, then:
Catalytically active preparations of the kinases of interest were either purchased or prepared. Purchased and tested active kinase preparations including the following: PKC-alpha, PKC-delta, PKC-epsilon, PKC-zeta, PKC-mu, PKA, PKG from Calbiochem, ROK alpha/ROCK-II, active from Upstate Biotechnology, and AKT1 from Panvera.
The conditions of the kinase assay and the amount of active kinase used varied with the kinase and with the accuracy needed. For a typical experiment, 5-20 ng of kinase was used per well and each peptide pool was assayed in duplicate wells. Note that the absolute amount of kinase used was not usually a critical parameter, because the desired information related to specificity of the kinase not its absolute activity, and robustness of the assay depends on comparisons of the same amount of kinase on different peptides. The combination of kinase concentration and assay duration was modified to assure that the stoichiometry of peptide phosphorylation never exceeded 5%. The choice of kinase buffer depended on the kinase being analyzed. For studies of PKC, 100 mM HEPES, 0.05% Triton-X100, 1 mM CaCl2, 20 mM MgCl2, 0.2 mg/ml phosphatidyl serine (Avanti Polar Lipids), PMA 100 ng/ml was typically used. The lipid stock was prepared by transferring 3 mg phosphatidyl serine into iced mixture of 450 μl water plus 50 μl of 10% Triton-X100, sonicating 10 times on ice for 1 sec each.
The kinase reaction mixture was assembled by sequential addition to a tube held on ice of: 5 μl peptide (100 μM for final concentration of 10 μM), 15 μl of kinase (typically 5 ng/well, in appropriate kinase buffer), 30 μl of ATP (1 uCi/well of ^32P-gamma ATP in a stock of 167 μM cold ATP in the kinase buffer; for final concentration for 100 μM ATP). The mixture was rapidly warmed to desired reaction temperature (30° C. for PKC) and incubated for the desired duration (usually 10 minutes). The kinase assay was terminated by transfer to 4° C. water batch, and rapid addition of an equal volume (50 μl) of stop solution [0.1M ATP+0.1M EDTA in water, pH 8].
The peptides were then captured from the reaction mixture by transfer to a Reacti-Bind Streptavidin High Binding Capacity Coated Plates (HBC) (Pierce Biotechnology) as follows. The HBC plates were pre-rinsed three times with PBS/Tween PBS/Tween20 0.05% (PBS/Tween). Part of all of the reaction mixture was then transferred wells of a HBC plate pre-filled with 90 μl of phosphate-buffered saline (PBS); typically each aliquots of each phosphorylation reaction were transferred to duplicate HBC plates to assure accuracy by additional replication
For kinase assays done at the standard peptide concentration of 10 μM, the peptide concentration in the reaction mixture becomes 5 μM after addition of the stop solution; consequently 10 μl of the reaction (50 pMoles of peptide) was transferred to the HBC plate. More generally, the amount of reaction mixture transferred was estimated to be about 50 pMoles of peptide. […] The HBC plates were incubated for 0.5 to 1.5 hr at room temperature for complete binding of biotinylated peptides to plate-bound streptavidin. The HBC plates were then washed extensively with PBS/Tween. Five washes were done routinely and additional wash steps were added if the wash solution removed from the plate had measurable radioactivity as detected using a Geiger counter. This step is essential to obtaining a good the signal to noise ratio because the fraction of radioactivity incorporated in the peptides was a tiny fraction of the total in the reaction mixture. The wells were air-dried. A volume of 40-50 μl of microScint-20 (Packard Instruments) was added to each well. The plates were covered with stick-on film sheet. Radioactive emissions were measured in a TopCount NXT Microplate Scintillation and Luminescence Counter (Packard Instruments). Typically samples were counted for 5 minutes (or more) to improve the signal to noise ratio when counts were low. […]

In a further assay the test system is pPKC Ab. Kind of assay: pPKC Ab binding to peptides phosphorylated in vitro by PKC-theta. The note with it: for pPKC Ab Signal on peptide after exposure to PKC-theta phosphorylation: 30 minutes at 30° C. then overnight at 4° C.; for pPKC Ab Signal amount dependent on PKC phosphorylation: difference after minus without exposure. Here is the method:
Synthetic peptides chosen from those shown in Table 4 were subjected to phosphorylation by PKC-theta, Assay conditions were similar to those described herein, except that the phosphorylation reaction was for 30 minutes at 30° C. and then overnight at 4° C. The reaction mixture was applied to HB avidin-coated plates, the plates washed, and then pPKC Ab binding assayed.

T1 sequence (P31749 whole entry, species assumed): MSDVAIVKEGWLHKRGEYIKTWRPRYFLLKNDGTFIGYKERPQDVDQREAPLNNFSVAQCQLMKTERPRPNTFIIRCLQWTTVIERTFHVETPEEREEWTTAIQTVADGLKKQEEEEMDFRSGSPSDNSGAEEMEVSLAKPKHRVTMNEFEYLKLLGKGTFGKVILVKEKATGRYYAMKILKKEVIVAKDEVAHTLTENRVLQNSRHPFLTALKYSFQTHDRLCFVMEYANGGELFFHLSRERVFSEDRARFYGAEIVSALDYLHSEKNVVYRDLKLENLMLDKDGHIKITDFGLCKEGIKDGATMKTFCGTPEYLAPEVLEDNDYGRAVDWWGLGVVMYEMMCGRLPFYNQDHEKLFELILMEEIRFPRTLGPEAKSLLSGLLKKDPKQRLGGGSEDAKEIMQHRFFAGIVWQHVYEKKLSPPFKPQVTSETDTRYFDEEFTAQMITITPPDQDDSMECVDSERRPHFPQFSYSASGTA

As for 76 (HVRRRRGTFKRSKLRARD) [compound 76], the AKT1 phosphorylation with AKT1 is 100%. For the same substance, in the assay on pPKC Ab, the “pPKC Ab Signal on peptide without exposure to PKC-theta” value amounted to 0.07, the “pPKC Ab Signal on peptide after exposure to PKC-theta phosphorylation” value is given as 1.02 and the “pPKC Ab Signal amount dependent on PKC phosphorylation” value is recorded as 0.95.

As to 77 (KKKKRASFKRKSSKKG) [compound 77], the AKT1 phosphorylation with AKT1 came out at 8%.

Regarding 78 (KFARKSTRRSIRLPE) [compound 78], the AKT1 phosphorylation in the assay with AKT1 was found to be 2%.

For 79 (NRKKKRTSFKRKA) [compound 79], in the assay with AKT1, the AKT1 phosphorylation was 7%.

With 80 (KKKKKRFSFKKSFKL) [compound 80], in the assay with AKT1, the AKT1 phosphorylation was 6%.

As for 82 (PRLIRRGSKKRPAR) [compound 82], in the assay with AKT1, the AKT1 phosphorylation was determined as 9%.

As to 83 (RKIPKRPGSVHRTPSRQ) [compound 83], in the assay with AKT1, the AKT1 phosphorylation is on record as 6%.

In the case of 84 (QKKSRLRRRASQLKI) [compound 84], in the assay with AKT1, the AKT1 phosphorylation is 10%.

Consider 85 (RFARKGSLRQKNV) [compound 85], for which the AKT1 phosphorylation with AKT1 was found to be 10%.

Turning to 86 (RQRKRKLSFRRRTDKD) [compound 86], the AKT1 phosphorylation in the assay with AKT1 amounted to 39%.

For 89 (EYLERRASRRRAV) [compound 89], in the assay with AKT1, the AKT1 phosphorylation stood at 1%.

For 90 (AQIVKRASLKRGKQ) [compound 90], the AKT1 phosphorylation in the assay with AKT1 is recorded as 3%.

With 92 (DGQKRKKSLRKKLD) [compound 92], in the assay with AKT1, the AKT1 phosphorylation turned out to be 2%.

Regarding 93 (AARKKRISVKKKQEQ) [compound 93], the AKT1 phosphorylation with AKT1 was found to be 7%.

Take 94 (KLAVGRHSFSRRSGV) [compound 94]: the AKT1 phosphorylation with AKT1 was 9%.

Take 95 (KKKFRTPSFLKKSKK) [compound 95]: the AKT1 phosphorylation with AKT1 stood at 9%.

For the substance 96 (RGFLRSASLGRRASFHLE) [compound 96], the AKT1 phosphorylation in the assay with AKT1 is recorded as 32%.

Take 99 (AGWRKKTSFRKPKED) [compound 99]: the AKT1 phosphorylation with AKT1 was determined as 6%.

On to 100 (WKGKRRSKARKKRK) [compound 100], for which the AKT1 phosphorylation with AKT1 is reported as 3%.

For the substance 101 (GAPPRRSSIRNAH) [compound 101], the AKT1 phosphorylation with AKT1 was 12%.

For the substance 102 (AGSFKRNSIKKIV) [compound 102], the AKT1 phosphorylation with AKT1 was 6%.

103 (LLKKRDSFRTPRDSKLE) [compound 103]: the AKT1 phosphorylation with AKT1 is given as 7%.

As to 104 (EKIKRSSLKKVDSLKK) [compound 104], the AKT1 phosphorylation with AKT1 is 2%.

For the substance 105 (ALRRPSLRREADD) [compound 105], the AKT1 phosphorylation with AKT1 amounted to 12%.

Regarding 106 (EILSRRPSYRKILND) [compound 106], the AKT1 phosphorylation with AKT1 came to 12%.

For 107 (QKRHARVTVKYDRRE) [compound 107], the AKT1 phosphorylation in the assay with AKT1 is listed as 3%.

For the substance 108 (KATTKKRTLRKNDRK) [compound 108], in the assay with AKT1, the AKT1 phosphorylation came out at 1%.

For 109 (KEVVRTDSLKGRRGR) [compound 109], in the assay with AKT1, the AKT1 phosphorylation was determined as 2%.

For 110 (EGGDRRASGRRK) [compound 110], in the assay with AKT1, the AKT1 phosphorylation was found to be 1%.

Consider “111 (KKKRFSFKKSFKLSGFSFKK) [compound 111]”, for which the AKT1 phosphorylation with AKT1 worked out at 3%.

For 112 (KRPGKKGSNKRPGKR) [compound 112], the AKT1 phosphorylation with AKT1 was determined as 3%.

Consider 113 (GENVLKKSMKSRVKG) [compound 113], for which the AKT1 phosphorylation with AKT1 came out at 9%.

As for 121 (LRRRSLRRSNSISKSPGP) [compound 121], in the assay with pPKC Ab, the “pPKC Ab Signal on peptide without exposure to PKC-theta” value is 0.02, the “pPKC Ab Signal on peptide after exposure to PKC-theta phosphorylation” value turned out to be 1.13 and the “pPKC Ab Signal amount dependent on PKC phosphorylation” value was 1.11.

The record behind these values is US20050064507A1, “Determining kinase specificity” (priority 2003, published 2005).
